Results from patent publication US20260028399A1.

T1: human CD96 (human) (UniProt P40200)
T1 sequence: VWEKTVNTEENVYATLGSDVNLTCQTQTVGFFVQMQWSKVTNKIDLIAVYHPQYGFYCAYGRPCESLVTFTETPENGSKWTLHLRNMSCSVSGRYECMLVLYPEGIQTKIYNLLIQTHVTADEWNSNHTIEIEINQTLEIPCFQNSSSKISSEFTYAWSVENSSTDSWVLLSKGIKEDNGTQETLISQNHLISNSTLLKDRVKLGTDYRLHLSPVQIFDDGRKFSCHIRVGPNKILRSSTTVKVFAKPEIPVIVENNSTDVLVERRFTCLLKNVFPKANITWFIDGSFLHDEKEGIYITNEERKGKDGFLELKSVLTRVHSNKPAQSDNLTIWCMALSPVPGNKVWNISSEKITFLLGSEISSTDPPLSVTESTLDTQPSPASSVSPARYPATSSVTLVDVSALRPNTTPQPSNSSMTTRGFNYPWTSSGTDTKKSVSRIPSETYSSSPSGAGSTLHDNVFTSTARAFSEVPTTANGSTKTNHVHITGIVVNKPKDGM

T2: human TIGIT (human) (UniProt Q495A1)
T2 sequence: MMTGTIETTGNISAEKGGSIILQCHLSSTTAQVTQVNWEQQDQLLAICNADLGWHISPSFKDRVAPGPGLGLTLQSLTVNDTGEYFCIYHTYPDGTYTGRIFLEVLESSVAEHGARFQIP


Assays:
human CD96 (human) [1] = target: T1, human CD96 (human); assay: phage ELISA on coated CD96 (4 ug/ml), phage 1.2 x 10^10 pfu/ml, anti-M13-HRP/TMB
human CD96 (human) [2] = target: T1, human CD96 (human); assay: phage ELISA on coated CD96 (4 ug/ml), phage 2.5 x 10^10 pfu/ml, anti-M13-HRP/TMB
human TIGIT (human) [3] = target: T2, human TIGIT (human); assay: phage ELISA on coated TIGIT (4 ug/ml), phage 3.7 x 10^8 pfu/ml, anti-M13-HRP/TMB
human CD96 (human) [4] = target: T1, human CD96 (human); assay: phage ELISA on coated CD96 (4 ug/ml), phage 3.7 x 10^8 pfu/ml, anti-M13-HRP/TMB
human TIGIT (human) [5] = target: T2, human TIGIT (human); assay: phage ELISA on coated TIGIT (4 ug/ml), phage 5 x 10^10 pfu/ml, anti-M13-HRP/TMB
human CD96 (human) [6] = target: T1, human CD96 (human); assay: phage ELISA on coated CD96 (4 ug/ml), phage 5 x 10^10 pfu/ml, anti-M13-HRP/TMB
human TIGIT (human) [7] = target: T2, human TIGIT (human); assay: phage ELISA on coated TIGIT (4 ug/ml), phage 7.5 x 10^8 pfu/ml, anti-M13-HRP/TMB
human TIGIT (human) [8] = target: T2, human TIGIT (human); assay: phage ELISA on coated TIGIT (4 ug/ml), phage 1.5 x 10^9 pfu/ml, anti-M13-HRP/TMB
human CD96 (human) [9] = target: T1, human CD96 (human); assay: phage ELISA on coated CD96 (4 ug/ml), phage 7.5 x 10^8 pfu/ml, anti-M13-HRP/TMB
human TIGIT (human) [10] = target: T2, human TIGIT (human); assay: phage ELISA on coated TIGIT (4 ug/ml), phage 3 x 10^9 pfu/ml, anti-M13-HRP/TMB
human TIGIT (human) [11] = target: T2, human TIGIT (human); assay: phage ELISA on coated TIGIT (4 ug/ml), phage 4.8 x 10^8 pfu/ml (so in the source), anti-M13-HRP/TMB
human TIGIT (human) [12] = target: T2, human TIGIT (human); assay: phage ELISA on coated TIGIT (4 ug/ml), phage 9 x 10^7 pfu/ml, anti-M13-HRP/TMB
human CD96 (human) [13] = target: T1, human CD96 (human); assay: phage ELISA on coated CD96 (4 ug/ml), phage 3 x 10^9 pfu/ml, anti-M13-HRP/TMB
human CD96 (human) [14] = target: T1, human CD96 (human); assay: phage ELISA on coated CD96 (4 ug/ml), phage 6 x 10^9 pfu/ml, anti-M13-HRP/TMB
human CD96 (human) [15] = target: T1, human CD96 (human); assay: phage ELISA on coated CD96 (4 ug/ml), phage 1.5 x 10^9 pfu/ml, anti-M13-HRP/TMB
human CD96 (human) [16] = target: T1, human CD96 (human); assay: phage ELISA on coated CD96 (4 ug/ml), phage 9 x 10^7 pfu/ml, anti-M13-HRP/TMB
human TIGIT (human) [17] = target: T2, human TIGIT (human); assay: phage ELISA on coated TIGIT (4 ug/ml), phage 6 x 10^9 pfu/ml, anti-M13-HRP/TMB
human CD96 (human) [18] = target: T1, human CD96 (human); assay: phage ELISA on coated CD96 (4 ug/ml), phage 4.8 x 10^8 pfu/ml (so in the source), anti-M13-HRP/TMB
human TIGIT (human) [19] = target: T2, human TIGIT (human); assay: phage ELISA on coated TIGIT (4 ug/ml), phage 0 pfu/ml (no phage, background), anti-M13-HRP/TMB
human CD96 (human) [20] = target: T1, human CD96 (human); assay: phage ELISA on coated CD96 (4 ug/ml), phage 1 x 10^11 pfu/ml, anti-M13-HRP/TMB
human CD96 (human) [21] = target: T1, human CD96 (human); assay: phage ELISA on coated CD96 (4 ug/ml), phage 0 pfu/ml (no phage, background), anti-M13-HRP/TMB
human TIGIT (human) [22] = target: T2, human TIGIT (human); assay: phage ELISA on coated TIGIT (4 ug/ml), phage 1 x 10^11 pfu/ml, anti-M13-HRP/TMB
human TIGIT (human) [23] = target: T2, human TIGIT (human); assay: phage ELISA on coated TIGIT (4 ug/ml), phage 2.5 x 10^10 pfu/ml, anti-M13-HRP/TMB
human TIGIT (human) [24] = target: T2, human TIGIT (human); assay: phage ELISA on coated TIGIT (4 ug/ml), phage 1.2 x 10^10 pfu/ml, anti-M13-HRP/TMB
BSA [25] = target: BSA (UniProt P02769); assay: phage ELISA on coated BSA, phage 1.2 x 10^10 pfu/ml, anti-M13-HRP/TMB
Chain of UniProt P02769 (P02769 25-607 limits assumed): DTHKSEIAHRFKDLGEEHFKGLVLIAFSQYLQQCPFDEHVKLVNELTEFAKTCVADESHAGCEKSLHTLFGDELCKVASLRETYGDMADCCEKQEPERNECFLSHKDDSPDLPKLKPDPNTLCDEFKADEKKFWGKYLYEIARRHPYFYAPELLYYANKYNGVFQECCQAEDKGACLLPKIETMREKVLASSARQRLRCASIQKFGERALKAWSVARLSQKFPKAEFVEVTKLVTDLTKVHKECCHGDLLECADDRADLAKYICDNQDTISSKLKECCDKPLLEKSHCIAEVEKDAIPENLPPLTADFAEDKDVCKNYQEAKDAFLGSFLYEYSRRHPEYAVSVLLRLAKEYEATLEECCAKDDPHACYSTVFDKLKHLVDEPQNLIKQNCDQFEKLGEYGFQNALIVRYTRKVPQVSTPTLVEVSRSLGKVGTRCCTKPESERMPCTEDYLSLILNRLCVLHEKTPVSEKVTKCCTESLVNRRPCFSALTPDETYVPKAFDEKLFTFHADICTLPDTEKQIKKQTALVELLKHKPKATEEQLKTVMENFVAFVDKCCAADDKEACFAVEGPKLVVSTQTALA

BSA [26] = target: BSA (UniProt P02769); assay: phage ELISA on coated BSA, phage 1.5 x 10^9 pfu/ml, anti-M13-HRP/TMB
BSA [27] = target: BSA (UniProt P02769); assay: phage ELISA on coated BSA, phage 5 x 10^10 pfu/ml, anti-M13-HRP/TMB
BSA [28] = target: BSA (UniProt P02769); assay: phage ELISA on coated BSA, phage 9 x 10^7 pfu/ml, anti-M13-HRP/TMB
BSA [29] = target: BSA (UniProt P02769); assay: phage ELISA on coated BSA, phage 2.5 x 10^10 pfu/ml, anti-M13-HRP/TMB
BSA [30] = target: BSA (UniProt P02769); assay: phage ELISA on coated BSA, phage 3.7 x 10^8 pfu/ml, anti-M13-HRP/TMB
BSA [31] = target: BSA (UniProt P02769); assay: phage ELISA on coated BSA, phage 7.5 x 10^8 pfu/ml, anti-M13-HRP/TMB
BSA [32] = target: BSA (UniProt P02769); assay: phage ELISA on coated BSA, phage 0 pfu/ml (no phage, background), anti-M13-HRP/TMB
BSA [33] = target: BSA (UniProt P02769); assay: phage ELISA on coated BSA, phage 1 x 10^11 pfu/ml, anti-M13-HRP/TMB
BSA [34] = target: BSA (UniProt P02769); assay: phage ELISA on coated BSA, phage 3 x 10^9 pfu/ml, anti-M13-HRP/TMB
BSA [35] = target: BSA (UniProt P02769); assay: phage ELISA on coated BSA, phage 4.8 x 10^8 pfu/ml (so in the source), anti-M13-HRP/TMB
BSA [36] = target: BSA (UniProt P02769); assay: phage ELISA on coated BSA, phage 6 x 10^9 pfu/ml, anti-M13-HRP/TMB

| Molecule | phage ELISA signal (human CD96 (human) [1]) | phage ELISA signal (human CD96 (human) [2]) | phage ELISA signal (human TIGIT (human) [3]) | phage ELISA signal (human CD96 (human) [4]) | phage ELISA signal (human TIGIT (human) [5]) | phage ELISA signal (human CD96 (human) [6]) | phage ELISA signal (human TIGIT (human) [7]) | phage ELISA signal (human TIGIT (human) [8]) | phage ELISA signal (human CD96 (human) [9]) | phage ELISA signal (human TIGIT (human) [10]) | phage ELISA signal (human TIGIT (human) [11]) | phage ELISA signal (human TIGIT (human) [12]) | phage ELISA signal (human CD96 (human) [13]) | phage ELISA signal (human CD96 (human) [14]) | phage ELISA signal (human CD96 (human) [15]) | phage ELISA signal (human CD96 (human) [16]) | phage ELISA signal (human TIGIT (human) [17]) | phage ELISA signal (human CD96 (human) [18]) | phage ELISA signal (human TIGIT (human) [19]) | phage ELISA signal (human CD96 (human) [20]) | also measured |
| --- | --- | --- | --- | --- | --- | --- | --- | --- | --- | --- | --- | --- | --- | --- | --- | --- | --- | --- | --- | --- | --- |
| irrelevant phage | 0.08 | 0.18 | 0.03 | 0.01 | 0.31 | 0.31 | 0.03 | 0.04 | 0.02 | 0.07 | 0.03 | 0.04 | 0.02 | 0.08 | 0.02 | 0.03 | 0.09 | 0.02 | 0.04 | 0.59 | phage ELISA signal (human CD96 (human) [21]): 0.05; phage ELISA signal (human TIGIT (human) [22]): 0.24; phage ELISA signal (human TIGIT (human) [23]): 0.25; phage ELISA signal (human TIGIT (human) [24]): 0.15 |
| anti-TIGIT clone C2 scFv (R8P1-C2), displayed on phage (scFv, part only; not given: linker, domain order, phage fusion, V domains shown, not shown: another chain or arm of the molecule; large carriers; small tags and cut ends) VH: GVQLVESGGDLVKPAGSLRLSCVASGFTFSNYGMSWVRQAPGKGLQWVASIASGGSATAYADAVKGRFTLSRDDAKNTLYLQMNNLRTEDTSMYYCVAPGFQYWGQGTLVTVSS VL: DIVMTQTPLSLSVSPGETASISCKASQSLLHSNGNTYLFWFRQKSGQSPQRLIYKVSNRDPGVPDRLSGSGSGTDFTLRISRVEADDAGVYYCGQGIQIPRTFGQGTKLEIK |  |  | 1.61 |  | 2.53 |  | 1.99 | 2.34 |  | 2.52 | 1.21 | 0.79 |  |  |  |  | 2.58 |  | 0.03 |  | phage ELISA signal (BSA [25]): 0.04; phage ELISA signal (BSA [26]): 0.02; phage ELISA signal (BSA [27]): 0.04; phage ELISA signal (BSA [28]): 0.03; phage ELISA signal (BSA [29]): 0.04; phage ELISA signal (BSA [30]): 0.02; phage ELISA signal (BSA [31]): 0.01; phage ELISA signal (BSA [32]): 0.04; phage ELISA signal (BSA [33]): 0.07; phage ELISA signal (BSA [34]): 0.02; phage ELISA signal (BSA [35]): 0.02; phage ELISA signal (BSA [36]): 0.03; phage ELISA signal (human TIGIT (human) [22]): 2.05; phage ELISA signal (human TIGIT (human) [23]): 2.66; phage ELISA signal (human TIGIT (human) [24]): 2.54 |
| anti-CD96 clone G1 scFv (R7P1-G1), displayed on phage (scFv, part only; not given: linker, domain order, phage fusion, V domains shown, not shown: another chain or arm of the molecule; large carriers; small tags and cut ends) VH: EVQLVESGGDLVKPAGSLRLSCVASGFPFSDSDMNWVRQAPGKGLQWVAGIDEGATDTGYADAVKGRFTISRDDAKNTLYLQMNSLRADDTAMYYCAAGGNFAYWGQGTLVTVSS VL: DIVMTQTPLSLSVSPGEPASISCKASQSLLHSNGNTYLYWFRQKPGQSPQGLIYLVSKRFSWVPDRFSGSGSGTDFTLRISRVEADDAGLYYCGQGIQYPYTFSQGTKLEIK | 2.59 | 2.65 |  | 0.95 |  | 2.68 |  |  | 1.36 |  |  |  | 2.11 | 2.28 | 1.73 | 0.38 |  | 0.63 |  | 2.61 | phage ELISA signal (BSA [25]): 0.02; phage ELISA signal (BSA [26]): 0.02; phage ELISA signal (BSA [27]): 0.04; phage ELISA signal (BSA [28]): 0.03; phage ELISA signal (BSA [29]): 0.03; phage ELISA signal (BSA [30]): 0.02; phage ELISA signal (BSA [31]): 0.01; phage ELISA signal (BSA [32]): 0.05; phage ELISA signal (BSA [33]): 0.06; phage ELISA signal (BSA [34]): 0.02; phage ELISA signal (BSA [35]): 0.01; phage ELISA signal (human CD96 (human) [21]): 0.05; phage ELISA signal (BSA [36]): 0.02 |
